Data as given in patent US20240360223A1 (DRAGONFLY THERAPEUTICS, published 2024).
Positions count from the first letter of the chain named. In names and notes the source's numbering stands.

How the values were obtained:
[1] = target: T1, human BAFF-R expressed on cells (human, UniProt Q96RJ3 1-184); assay: flow cytometry, human BAFF-R CHO cells
T1 construct: Cell surface BAFF-R, endogenous on B cell lines and primary B cells or overexpressed on isogenic CHO cells; also called hBAFF-R; hBAFF-R-CHO

[2] = target: T2, cynomolgus monkey BAFF-R expressed on cells (cynomolgus monkey); assay: flow cytometry, cyno BAFF-R CHO cells
T2 construct: whole, on cells; also called cBAFF-R; cynoBAFF-R

[3] = target: T3, hBAFF-R-hFc-His fusion protein (human, UniProt Q96RJ3 1-78, biotinylated in the yeast display assays); assay: yeast display flow cytometry after challenge: 100 pM hBAFFR-Fc biotin for 1hr at RT, then 1 mM nonbiotinylated hBAFFR-Fc (as printed on the sheet)
T3 construct: the whole entry is named; also called hBAFFR-Fc; biotinylated hBAFF-R-hFc-His

[4] = target: T1, human BAFF-R expressed on cells; assay: flow cytometry, RAJI cells
Method: The BAFF-R positive human B lymphoblastoid RAJI cell line was used to assess TriNKET binding to cell surface BAFF-R. Certain BAFF-R TriNKETs in the 2-Fab and F3′ formats, as described in the “exemplary multispecific binding proteins” subsection above, were diluted and incubated with Raji cells. Binding patterns of TriNKETs and parental monoclonal antibodies were detected using a fluorophore conjugated anti-human IgG secondary antibody. The cells were then incubated with a fluorophore conjugated anti-human IgG secondary antibody and were analyzed by flow cytometry. The mean fluorescence intensity (MFI) values were normalized to secondary antibody only controls to obtain fold over background (FOB) values.

B1: AB0681 (bispecific antibody, V domains shown)
VH: EVQLVQSGGGVVQPGRSLRLSCAASGEWFSSYGMHWVRQAPGKCLEWVAVIWYDGSNKYYGDSVKGRFTISRDNSKNTLYLQMNSLRDEDTAVYYCARRFTHLRGWIIEDYGMDVWGQGTTVTVSS
VL: not shown
notes: also called AB0681-001
Binder B1 has an EC50 [1] of 5.1 nM and an EC50 [2] of 5.6 nM.

B2: AB1080scFv (scFv, V domains shown)
VH: B1 VH with E27F, W28T, G55A, I107Y, M113L
VL: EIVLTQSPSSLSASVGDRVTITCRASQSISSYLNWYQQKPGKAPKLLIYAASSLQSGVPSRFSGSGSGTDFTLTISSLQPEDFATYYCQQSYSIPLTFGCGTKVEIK
notes: scFv on yeast; also called AB1080 (yeast clone)
B2 was tested, and the “Iana (percent of events in the drawn gate named Iana)” value [3] was 23.4.

B3: AB1081scFv (scFv, V domains shown)
VH: B1 VH with E27F, W28A, G55E, K76R, H102N, M113L
VL: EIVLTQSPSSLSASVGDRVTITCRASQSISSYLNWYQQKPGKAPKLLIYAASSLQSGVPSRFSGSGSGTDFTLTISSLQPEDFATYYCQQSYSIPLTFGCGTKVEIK
notes: scFv on yeast; also called AB1081 (yeast clone)
With B3 the “Iana (percent of events in the drawn gate named Iana)” value [3] was 27.2.

B4: AB1084scFv (scFv, V domains shown)
VH: B1 VH with E27F, W28T, S31M, G55A, H102R, I107Y, M113L
VL: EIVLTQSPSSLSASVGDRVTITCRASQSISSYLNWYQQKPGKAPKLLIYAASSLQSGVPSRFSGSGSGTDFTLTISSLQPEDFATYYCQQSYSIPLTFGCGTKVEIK
notes: scFv on yeast; also called AB1084 (yeast clone)
With B4 the “Iana (percent of events in the drawn gate named Iana)” value [3] was 7.4.

B5: Ianalumab-F3′ (bispecific antibody, human IgG1, kappa)
chain: DIVLTQSPATLSLSPGERATLSCRASQFILPEYLSWYQQKPGQAPRLLIYGSSSRATGVPARFSGSGSGTDFTLTISSLEPEDFAVYYCQQFYSSPLTFGCGTKVEIKGGGGSGGGGSGGGGSGGGGSQVQLQQSGPGLVKPSQTLSLTCAISGDSVSSNSAAWGWIRQSPGRCLEWLGRIYYRSKWYNSYAVSVKSRITINPDTSKNQFSLQLNSVTPEDTAVYYCARYQWVPKIGVFDSWGQGTLVTVSSASDKTHTCPPCPAPELLGGPSVFLFPPKPKDTLMISRTPEVTCVVVDVSHEDPEVKFNWYVDGVEVHNAKTKPREEQYNSTYRVVSVLTVLHQDWLNGKEYKCKVSNKALPAPIEKTISKAKGQPREPRVYTLPPCRDELTKNQVSLTCLVKGFYPSDIAVEWESNGQPENNYKTTPPVLVSDGSFTLYSKLTVDKSRWQQGNVFSCSVMHEALHNHYTQKSLSLSPG
heavy: EVQLVESGGGLVKPGGSLRLSCAASGFTFSSYSMNWVRQAPGKGLEWVSSISSSSSYIYYADSVKGRFTISRDNAKNSLYLQMNSLRAEDTAVYYCARGAPIGAAAGWFDPWGQGTLVTVSSASTKGPSVFPLAPSSKSTSGGTAALGCLVKDYFPEPVTVSWNSGALTSGVHTFPAVLQSSGLYSLSSVVTVPSSSLGTQTYICNVNHKPSNTKVDKKVEPKSCDKTHTCPPCPAPELLGGPSVFLFPPKPKDTLMISRTPEVTCVVVDVSHEDPEVKFNWYVDGVEVHNAKTKPREEQYNSTYRVVSVLTVLHQDWLNGKEYKCKVSNKALPAPIEKTISKAKGQPREPQVCTLPPSRDELTENQVSLTCLVKGFYPSDIAVEWESNGQPENNYKTTPPVLDSDGSFFLYSWLTVDKSRWQQGNVFSCSVMHEALHNHYTQKSLSLSPG
light: DIQMTQSPSSVSASVGDRVTITCRASQGISSWLAWYQQKPGKAPKLLIYAASSLQSGVPSRFSGSGSGTDFTLTISSLQPEDFATYYCQQGVSFPRTFGGGTKVEIKRTVAAPSVFIFPPSDEQLKSGTASVVCLLNNFYPREAKVQWKVDNALQSGNSQESVTEQDSKDSTYSLSSTLTLSKADYEKHKVYACEVTHQGLSSPVTKSFNRGEC
notes: F3′ TriNKET: BAFF-R scFv-Fc (chain S), NKG2D Fab heavy (chain H) and light (chain L); no ADCC-enhancing mutations; also called ianalumab-F3′ TriNKET; Tool-F3′
With B5 the EC50 [1] was 4.3 nM, the EC50 [4] was 0.361 nM and the EC50 [2] was 2.9 nM.

B6: Ianalumab-2-Fab (bispecific antibody, human IgG1, kappa)
heavy 1: not shown
light 1: DIVLTQSPATLSLSPGERATLSCRASQFILPEYLSWYQQKPGQAPRLLIYGSSSRATGVPARFSGSGSGTDFTLTISSLEPEDFAVYYCQQFYSSPLTFGQGTKVEIKRTVAAPSVFIFPPSDEQLKSGTASVVCLLNNFYPREAKVQWKVDNALQSGNSQESVTEQDSKDSTYSLSSTLTLSKADYEKHKVYACEVTHQGLSSPVTKSFNRGEC
heavy 2: not shown
light 2: B5 light
notes: 2-Fab TriNKET: BAFF-R Fab arm and NKG2D (A49MI) Fab arm, F405L/K409R Fc
B6 was tested, and the EC50 [4] was 0.115 nM.

B7: Hu9.1-73-F3′ (bispecific antibody, human IgG1, kappa)
chain: DIQMTQSPSSLSASVGDRVTITCKSSQSLLYSSNQNNYLAWYQQKPGKAPKLLIYWAQHLDSGVPSRFSGSGSGTDFTLTISSLQPEDFATYYCQQYYTYPYTFGCGTKVEIKGGGGSGGGGSGGGGSGGGGSEVQLVESGGGLVQPGGSLRLSCAASGLPMAGFYTSWVRQAPGKCLEWVGFIRDKANGYTTEYNPSVKGRFTISADTSKNTAYLQMNSLRAEDTAVYYCAQVRRALDYWGQGTLVTVSSASDKTHTCPPCPAPELLGGPSVFLFPPKPKDTLMISRTPEVTCVVVDVSHEDPEVKFNWYVDGVEVHNAKTKPREEQYNSTYRVVSVLTVLHQDWLNGKEYKCKVSNKALPAPIEKTISKAKGQPREPRVYTLPPCRDELTKNQVSLTCLVKGFYPSDIAVEWESNGQPENNYKTTPPVLVSDGSFTLYSKLTVDKSRWQQGNVFSCSVMHEALHNHYTQKSLSLSPG
heavy: B5 heavy
light: B5 light
notes: F3′ TriNKET; also called Hu9.1-73-F3′ TriNKET
For B7, the EC50 [4] was 0.765 nM.

B8: Hu9.1-73-2-Fab (bispecific antibody, human IgG1, kappa)
heavy 1: not shown
light 1: DIQMTQSPSSLSASVGDRVTITCKSSQSLLYSSNQNNYLAWYQQKPGKAPKLLIYWAQHLDSGVPSRFSGSGSGTDFTLTISSLQPEDFATYYCQQYYTYPYTFGQGTKVEIKRTVAAPSVFIFPPSDEQLKSGTASVVCLLNNFYPREAKVQWKVDNALQSGNSQESVTEQDSKDSTYSLSSTLTLSKADYEKHKVYACEVTHQGLSSPVTKSFNRGEC
heavy 2: not shown
light 2: B5 light
notes: 2-Fab TriNKET
In the case of B8, the EC50 [4] is reported as 1.05 nM.

B9: Hu9.1-73-mAb (antibody, V domains shown)
VH: EVQLVESGGGLVQPGGSLRLSCAASGLPMAGFYTSWVRQAPGKGLEWVGFIRDKANGYTTEYNPSVKGRFTISADTSKNTAYLQMNSLRAEDTAVYYCAQVRRALDYWGQGTLVTVSS
VL: DIQMTQSPSSLSASVGDRVTITCKSSQSLLYSSNQNNYLAWYQQKPGKAPKLLIYWAQHLDSGVPSRFSGSGSGTDFTLTISSLQPEDFATYYCQQYYTYPYTFGQGTKVEIK
notes: Parental monoclonal antibody; also called Genentech Hu9.1-73 parental mAb
Work on B9 yielded an EC50 [4] of 0.379 nM.

B10: hCOH-2-F3′ (bispecific antibody, human IgG1, kappa)
chain: DIVLTQSPATLSLSPGERATLSCRASESVDNYGISFMNWFQQKPGQAPRLLIYAASNRATGIPARFSGSGSGTDFTLTISSLEPEDFAVYYCQQSKEVPWTFGCGTKVEIKGGGGSGGGGSGGGGSGGGGSEVQLQESGPGLVKPSQTLSLTCTVSGDSITSGYWNWIRQHPGKCLEYIGYISYSGSTYYNPSLKSRVTISRDTSKNQYSLKLSSVTAADTAVYYCASPNYPFYAMDYWGQGTLVTVSSASDKTHTCPPCPAPELLGGPSVFLFPPKPKDTLMISRTPEVTCVVVDVSHEDPEVKFNWYVDGVEVHNAKTKPREEQYNSTYRVVSVLTVLHQDWLNGKEYKCKVSNKALPAPIEKTISKAKGQPREPRVYTLPPCRDELTKNQVSLTCLVKGFYPSDIAVEWESNGQPENNYKTTPPVLVSDGSFTLYSKLTVDKSRWQQGNVFSCSVMHEALHNHYTQKSLSLSPG
heavy: B5 heavy
light: B5 light
notes: F3′ TriNKET
For B10, the EC50 [4] was 0.893 nM.

B11: hCOH-2-2-Fab (bispecific antibody, human IgG1, kappa)
heavy 1: not shown
light 1: DIVLTQSPATLSLSPGERATLSCRASESVDNYGISFMNWFQQKPGQAPRLLIYAASNRATGIPARFSGSGSGTDFTLTISSLEPEDFAVYYCQQSKEVPWTFGGGTKVEIKRTVAAPSVFIFPPSDEQLKSGTASVVCLLNNFYPREAKVQWKVDNALQSGNSQESVTEQDSKDSTYSLSSTLTLSKADYEKHKVYACEVTHQGLSSPVTKSFNRGEC
heavy 2: not shown
light 2: B5 light
notes: 2-Fab TriNKET
Binder B11 has an EC50 [4] of 0.942 nM.

B12: hCOH-2-mAb (antibody, V domains shown)
VH: EVQLQESGPGLVKPSQTLSLTCTVSGDSITSGYWNWIRQHPGKGLEYIGYISYSGSTYYNPSLKSRVTISRDTSKNQYSLKLSSVTAADTAVYYCASPNYPFYAMDYWGQGTLVTVSS
VL: DIVLTQSPATLSLSPGERATLSCRASESVDNYGISFMNWFQQKPGQAPRLLIYAASNRATGIPARFSGSGSGTDFTLTISSLEPEDFAVYYCQQSKEVPWTFGGGTKVEIK
notes: Parental monoclonal antibody; also called Humanized mAb hCOH-2
With B12 the EC50 [4] was 0.043 nM.
